Target: T1, ribosomal protein S8 (Staphylococcus aureus) (UniProt A6U3W1)
T1 sequence: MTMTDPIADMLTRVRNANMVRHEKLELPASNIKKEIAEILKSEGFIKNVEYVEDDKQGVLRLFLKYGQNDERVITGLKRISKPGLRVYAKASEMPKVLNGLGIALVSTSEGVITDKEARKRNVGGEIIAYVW
Assay: filter
Details: 80 mM HEPES-KOH pH 7.6, 350 mM KOAc, 20 mM MgOAc, on ice

Substance: S. aureus Helix 21 A604-U652 to G-C
- binding signal (fold decrease in affinity vs wild type) (apparent Kd in Table 5 not given): 10

Substance: S. aureus Helix 21 rRNA wild type (nts 596-659 of 16S rRNA)
- Kd: 400 nM
